One data set relates to maize PTE. Description: Thioesterase assay, substrate specificity of partially purified maize PTE expressed in E. coli. It counts as biochemical. As to conditions: for Percent Relative Activity: 10 μM radio-labeled acyl-ACP, 30° C., 5 min, 100% = 2.1 units/mg protein. The protocol:
(§1) For enzymatic analysis of E coli expressed maize PTE, substrates were made as follows: ACP (Sigma Chemical Co.) was further purified by three cycles of precipitation at pH 4.0 using 10% (v/v) acetic acid followed by resolubilization in 50 mM Tris-HCl, pH 8.0. Carbon-14 or tritium-labeled fatty acids (lauric, 12:0; myristic, 14:0; palmitic, 16:0; stearic, 18:0; and oleic, 18:1) were obtained from Amersham (Arlington Heights, Ill.) or NEN Research Products. Acyl-ACPs were synthesized and purified according to Rock et al., ((1981) Methods in Enzymology, 72:397-403). Thioesterase assays were conducted according to Ohlrogge et al., ((1978) Arch. Biochem. Biophys. 189:382-391) with slight modifications. A standard reaction contained […] Tris-HCl, pH 8.0, 10 μM radio-labeled acyl-ACP (50-58 μCi/μmol), and enzyme in 50 μL. Reactions were conducted at 30° C. for 5 min and terminated with 200 μL of 10% (v/v) acetic acid. Free fatty acids were extracted twice with 1 mL hexane and the organic phases were combined for liquid scintillation counting. Protein concentrations were determined according to Bradford ((1976) Anal. Biochem. […]:248-254). Linear regressions were used for determination of kinetic constants from double reciprocal plots.

Data set [1] has as its system maize OTE. Description: Thioesterase assay, substrate specificity and Km of maize OTE purified from kernels. It counts as biochemical. The conditions noted are these: for activity relative to that observed with 18:1-ACP: C14-labeled acyl-ACPs; for Km: double reciprocal plots. As for the experimental part:
as §1
The resolubilized PEG-precipitated material was applied to hydroxyapatite (HA-Ultrogel, Sigma Chemical Co.) which had been previously loaded into a 2.5×20 cm column equilibrated with buffer A. After loading, the column was washed with 300 mL of buffer A and maize OTE activity was eluted with buffer A having 1 M NaCl. Enzymatic activity was followed using C^14 labeled 18:1-ACP as substrate. Production of substrate and biochemical assays were performed as described herein. Fractions having thioesterase activity were pooled and desalted to 20 mM Tris, pH 7.0, 0.4 mM DTT (buffer B) on PD-10 columns (Pharmacia). The desalted fraction was then applied to a MonoQ HR 10/10 column (Pharmacia) and the enzyme was eluted using a linear gradient of 0-0.5 M NaCl in buffer B over 30 min. at a flow rate of 4 mL/min. Fractions were assayed for activity and active fractions were pooled and desalted on PD-10 columns (Pharmacia) equilibrated with buffer A.
The substrate specificity of purified maize OTE was analyzed using several C^14 -labeled acyl-ACPs as described herein. […] Low activities (less than 10% of that observed with 18:1-ACP) were observed when using 12:0-ACP, 14:0-ACP, 16:0-ACP, 18:0-ACP.

For data set [2], the system named is maize OTE. As to the kind of experiment: Thioesterase assay, substrate specificity of maize OTE expressed in E. coli. It is filed as biochemical. The conditions noted are these: for Percent Relative Activity: radio-labeled acyl-ACP, 100% = 2.1 units/mg protein.
The target of data set [3] is 12:0-ACP (Laurate).
The target of data set [4] is 14:0-ACP (Myristate).
Data set [5] deals with 16:0-ACP (Palmitate).
In data set [6] the target is 18:0-ACP (Stearate).
The target of data set [7] is 18:1-ACP (Oleate).
Data set [8] addresses 12:0-ACP (Laurate). This is another data set of the same source.
Data set [9] concerns the target 14:0-ACP (Myristate). This is another data set of the same source.
Data set [10] addresses 16:0-ACP (Palmitate). The source holds these as a separate data set.
Data set [11] deals with 18:0-ACP (Stearate). This is another data set of the same source.
The target in data set [12] is 18:1-ACP (Oleate). This is another data set of the same source.
For data set [13], the target named is 12:0-ACP (Laurate). This is another data set of the same source.
The target of data set [14] is 14:0-ACP (Myristate). This is another data set of the same source.
The target of data set [15] is 16:0-ACP (Palmitate). The source holds these as a separate data set.
In data set [16] the target is 18:0-ACP (Stearate). The source holds these as a separate data set.
The target of data set [17] is 18:1-ACP (Oleate). This is another data set of the same source.

Where two headings read alike, the source gives them in different places.

On to “12:0-ACP: radio-labeled lauric acid thioester of acyl carrier protein, thioesterase substrate”, for which the “Percent Relative Activity” value is 0.0% in the data set on maize PTE and 0.7% with maize OTE [2]. Further, in the data set with maize OTE [1], the “activity relative to that observed with 18:1-ACP” value was “less than 10%”.
For the molecule “16:0-ACP: radio-labeled palmitic acid thioester of acyl carrier protein, thioesterase substrate”, the figures for the “Percent Relative Activity” value in the data set with maize PTE and in the data set with maize OTE [2] were 100.0% and 14.1%, respectively. Also, in the data set with maize OTE [1], the “activity relative to that observed with 18:1-ACP” value is reported as “less than 10%”. Besides, the Km in the data set on maize OTE [1] is 25 µM.
Take “18:0-ACP: radio-labeled stearic acid thioester of acyl carrier protein, thioesterase substrate”: the “Percent Relative Activity” value was 61.2% in the data set with maize PTE and 25.2% in the data set on maize OTE [2]. For the same molecule, the “activity relative to that observed with 18:1-ACP” value in the data set on maize OTE [1] is recorded as “less than 10%”.
As for “18:1-ACP: radio-labeled oleic acid thioester of acyl carrier protein, thioesterase substrate”, the results for the “Percent Relative Activity” value with maize PTE and in the data set on maize OTE [2] were 40.4% and 100.0%, respectively. Also, the Michaelis constant (Km) with maize OTE [1] was determined as 0.75 µM.
Regarding “maize oleoyl-ACP thioesterase, mature protein expressed in E. coli (pDAB371) (enzyme)”, the Percent Relative Activity (thioesterase assay, release of radio-labeled free fatty acid) (% relative activity) with 12:0-ACP (Laurate) [3] stood at 0.7; with 14:0-ACP (Myristate) [4] it was 6.3; in the data set with 16:0-ACP (Palmitate) [5], 14.1; with 18:0-ACP (Stearate) [6], 25.2; in the data set with 18:1-ACP (Oleate) [7], 100.
In the case of “maize oleoyl-ACP thioesterase, native protein from maize kernels and embryos (enzyme)”, the substrate specificity (thioesterase assay with C14-labeled acyl-ACPs) (% of that observed with 18:1-ACP) in the data set with 12:0-ACP (Laurate) [8], with 14:0-ACP (Myristate) [9], with 16:0-ACP (Palmitate) [10] and with 18:0-ACP (Stearate) [11] was less than 10 throughout. The Km was found to be 25 µM with 16:0-ACP (Palmitate) [10] and 0.75 µM in the data set with 18:1-ACP (Oleate) [12].
As to “maize palmitoyl-ACP thioesterase, mature protein expressed in E. coli (pDAB378) (enzyme)”, the Percent Relative Activity (thioesterase assay, release of radio-labeled free fatty acid) (% relative activity) with 12:0-ACP (Laurate) [13] was determined as 0; with 14:0-ACP (Myristate) [14] it was 16; in the data set with 16:0-ACP (Palmitate) [15], 100; with 18:0-ACP (Stearate) [16], 61.2; with 18:1-ACP (Oleate) [17] it was 40.4.

B1: maize PTE: maize palmitoyl-ACP thioesterase, mature protein expressed in E. coli from pDAB378 (protein)
chain: LPDWSMLLAAITTIFLAAEKQWTMLDWKPRRPDMLTDTFGFGRIIHDGLMFRQNFSIRSYEIGADRTASIETLMNHLQETALNHVKTAGLLGDGFGSTPEMSKRNLFWVVSQMQAIIERYPCWGDTVEVDTWVSANGKNGMRRDWHIRDPITGLTILKATSKWVMMNKLTRKLARIPDEVRTEIEPYFFEHSAIVDEDNRKLPKLPEGQSTSVAKYVRTGLTPRWADLDINQHVNNVKYIAWILESAPISILENHELASIVLDYKRECGRDSVLQSHTSVHTDCNSESGETTLHCEHVLSLESGPTMVKARTMWRPKGTKAQETVVPSSI
As for B1, in the data set with maize PTE (unit = cleavage of 1 μmol/h free fatty acid at 30° C., 16:0-ACP), the “specific activity equivalent to 100% relative activity” value is given as 2.1 units/mg protein.

B2: maize OTE: maize oleoyl-ACP thioesterase, purified from kernels or expressed in E. coli from pDAB371 (protein)
chain: CARGAPQVSGIEAASPGHAAVTAALAKAEGGDARPSLAERLRLGNLLEDGLSYKESFIVRCYEVGINKTATVETIANLLQEVGCNHAQSVGFSTDGFATTTTMRKLGLIWVTNRMHIEIYKYPAWGDVVEIETWCQEDGRIGTRRDWILKDLANGEVIGRATSKWVMMNQNTRRLQRVSDDVRDEVFMHCPKAPRLAFPEENNGSLKKIPNLSDPAEYSRLGLVPRRADLDMNQHVNNVTYIGWVLESIPQDIIDTHELQTITLDYRRECQQDDIVDSLTCIEEGEEKSMNGSASAAAPHKEERQQFLHCLRFAANGHEINRGRTVWRKLAR
For B2, the “specific activity equivalent to 100% relative activity” value in the data set on maize OTE [2] (unit = cleavage of 1 μmol/h free fatty acid at 30° C., 18:1-ACP) was determined as 2.1 units/mg protein.

For orientation: Km means the substrate concentration at which the rate is half of its maximum.

(Values after patent publication US6331664A, “Acyl-ACP thioesterase nucleic acids from maize and methods of altering palmitic acid levels in transgenic plants therewith” (Dow AgroSciences LLC, priority 1998, dated 2001).)
